Data from the supplement of paper PMC11316812.
± gives the standard deviation of the averaged measurements.

Legend:
[1] = tested on: hTERT-HMEC; experiment: percentage of EdU-negative (G0-arrested) nuclei per well, 72 h; higher = more G0 arrest; conditions: reference: sequence is the full UniProt precursor, the tested protein was the secreted form or ectodomain
[2] = tested on: MCF7; experiment: as above; conditions: reference: sequence is the full UniProt precursor, the tested protein was the secreted form or ectodomain
[3] = protein concentration 0.0257143 µM
[4] = protein concentration 0.257143 µM
[5] = protein concentration 0.0225 µM
[6] = protein concentration 0.00771429 µM
[7] = protein concentration 0.0771429 µM
[8] = protein concentration 0.03125 µM
[9] = protein concentration 0.3125 µM
[10] = protein concentration 0.02225 µM
[11] = protein concentration 0.2225 µM
[12] = protein concentration 0.03123 µM
[13] = protein concentration 0.3123 µM
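Also: secreted proteins added to cultured cells, EdU pulse at the end, nuclei found by Hoechst imaging, EdU status from nuclear versus surrounding ring intensity ratio, PBS as neutral control.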

Sequence	percentage of EdU-negative [1, 5] [%]	percentage of EdU-negative ([1]; protein concentration 0.225 µM) [%]	percentage of EdU-negative [2, 5] [%]	percentage of EdU-negative ([2]; protein concentration 0.225 µM) [%]	further results
MWLRLGPPSLSLSPKPTVGRSLCLTLWFLSLALRASTQAPAPTVNTHFGKLRGARVPLPSEILGPVDQYLGVPYAAPPIGEKRFLPPEPPPSWSGIRNATHFPPVCPQNIHTAVPEVMLPVWFTANLDIVATYIQEPNEDCLYLNVYVPTEDVKRISKECARKPNKKICRKGGSGAKKQGEDLADNDGDEDEDIRDSGAKPVMVYIHGGSYMEGTGNMIDGSILASYGNVIVITLNYRVGVLGFLSTGDQAAKGNYGLLDQIQALRWVSENIAFFGGDPRRITVFGSGIGASCVSLLTLSHHSEGLFQRAIIQSGSALSSWAVNYQPVKYTSLLADKVGCNVLDTVDMVDCLRQKSAKELVEQDIQPARYHVAFGPVIDGDVIPDDPEILMEQGEFLNYDIMLGVNQGEGLKFVEGVVDPEDGVSGTDFDYSVSNFVDNLYGYPEGKDTLRETIKFMYTDWADRDNPETRRKTLVALFTDHQWVEPSVVTADLHARYGSPTYFYAFYHHCQSLMKPAWSDAAHGDEVPYVFGVPMVGPTDLFPCNFSKNDVMLSAVVMTYWTNFAKTGDPNKPVPQDTKFIHTKANRFEEVAWSKYNPRDQLYLHIGLKPRVRDHYRATKVAFWKHLVPHLYNLHDMFHYTSTTTKVPPPDTTHSSHITRRPNGKTWSTKRPAISPAYSNENAQGSWNGDQDAGPLLVENPRDYSTELSVTIAVGASLLFLNVLAFAALYYRKDKRRQEPLRQPSPQRGAGAPELGAAPEEELAALQLGPTHHECEAGPPHDTLRLTALPDYTLTLRRSPDDIPLMTPNTITMIPNSLVGLQTLHPYNTFAAGFNSTGLPHSHSTTRV [Q9NZ94]	–	–	–	–	percentage of EdU-negative [1, 3]: 5.8 ± 1.5%; percentage of EdU-negative [1, 4]: 10.2 ± 2.3%; percentage of EdU-negative [2, 3]: 24.2 ± 1.1%; percentage of EdU-negative [2, 4]: 24.1 ± 1.1%
MWNMLIVAMCLALLGCLQAQELQGHVSIILLGATGDLAKKYLWQGLFQLYLDEAGRGHSFSFHGAALTAPKQGQELMAKALESLSCPKDMAPSHCAEHKDQFLQLSQYRQLKTAEDYQALNKDIEAQLQHAGLREAGRIFYFSVPPFAYEDIARNINSSCRPGPGAWLRVVLEKPFGHDHFSAQQLATELGTFFQEEEMYRVDHYLGKQAVAQILPFRDQNRKALDGLWNRHHVERVEIIMKETVDAEGRTSFYEEYGVIRDVLQNHLTEVLTLVAMELPHNVSSAEAVLRHKLQVFQALRGLQRGSAVVGQYQSYSEQVRRELQKPDSFHSLTPTFAAVLVHIDNLRWEGVPFILMSGKALDERVGYARILFKNQACCVQSEKHWAAAQSQCLPRQLVFHIGHGDLGSPAVLVSRNLFRPSLPSSWKEMEGPPGLRLFGSPLSDYYAYSPVRERDAHSVLLSHIFHGRKNFFITTENLLASWNFWTPLLESLAHKAPRLYPGGAENGRLLDFEFSSGRLFFSQQQPEQLVPGPGPAPMPSDFQVLRAKYRESPLVSAWSEELISKLANDIEATAVRAVRRFGQFHLALSGGSSPVALFQQLATAHYGFPWAHTHLWLVDERCVPLSDPESNFQGLQAHLLQHVRIPYYNIHPMPVHLQQRLCAEEDQGAQIYAREISALVANSSFDLVLLGMGADGHTASLFPQSPTGLDGEQLVVLTTSPSQPHRRMSLSLPLINRAKKVAVLVMGRMKREITTLVSRVGHEPKKWPISGVLPHSGQLVWYMDYDAFLG	5.45 ± 1.2	7.4 ± 1.2	23.3 ± 2.2	25.2 ± 1.6	–
MWPLTVPPPLLLLLCSGLAGQTLFQNPEEGWQLYTSAQAPDGKCICTAVIPAQSTCSRDGRSRELRQLMEKVQNVSQSMEVLELRTYRDLQYVRGMETLMRSLDARLRAADGSLSAKSFQELKDRMTELLPLSSVLEQYKADTRTIVRLREEVRNLSGSLAAIQEEMGAYGYEDLQQRVMALEARLHACAQKLGCGKLTGVSNPITVRAMGSRFGSWMTDTMAPSADSRVWYMDGYYKGRRVLEFRTLGDFIKGQNFIQHLLPQPWAGTGHVVYNGSLFYNKYQSNVVVKYHFRSRSVLVQRSLPGAGYNNTFPYSWGGFSDMDFMVDESGLWAVYTTNQNAGNIVVSRLDPHTLEVMRSWDTGYPKRSAGEAFMICGVLYVTNSHLAGAKVYFAYFTNTSSYEYTDVPFHNQYSHISMLDYNPRERALYTWNNGHQVLYNVTLFHVISTSGDP	–	–	–	–	percentage of EdU-negative [1, 6]: 4.89 ± 0.63%; percentage of EdU-negative [1, 7]: 5.22 ± 0.46%; percentage of EdU-negative [2, 6]: 24.6 ± 2.2%; percentage of EdU-negative [2, 7]: 29 ± 4.7%
MWPLWRLVSLLALSQALPFEQRGFWDFTLDDGPFMMNDEEASGADTSGVLDPDSVTPTYSAMCPFGCHCHLRVVQCSDLGLKSVPKEISPDTTLLDLQNNDISELRKDDFKGLQHLYALVLVNNKISKIHEKAFSPLRKLQKLYISKNHLVEIPPNLPSSLVELRIHDNRIRKVPKGVFSGLRNMNCIEMGGNPLENSGFEPGAFDGLKLNYLRISEAKLTGIPKDLPETLNELHLDHNKIQAIELEDLLRYSKLYRLGLGHNQIRMIENGSLSFLPTLRELHLDNNKLARVPSGLPDLKLLQVVYLHSNNITKVGVNDFCPMGFGVKRAYYNGISLFNNPVPYWEVQPATFRCVTDRLAIQFGNYKK	–	–	–	–	percentage of EdU-negative [1, 8]: 4.62 ± 0.74%; percentage of EdU-negative [1, 9]: 7.32 ± 0.21%; percentage of EdU-negative [2, 8]: 25.3 ± 1.7%; percentage of EdU-negative [2, 9]: 25.1 ± 3.1%
MWQIVFFTLSCDLVLAAAYNNFRKSMDSIGKKQYQVQHGSCSYTFLLPEMDNCRSSSSPYVSNAVQRDAPLEYDDSVQRLQVLENIMENNTQWLMKLENYIQDNMKKEMVEIQQNAVQNQTAVMIEIGTNLLNQTAEQTRKLTDVEAQVLNQTTRLELQLLEHSLSTNKLEKQILDQTSEINKLQDKNSFLEKKVLAMEDKHIIQLQSIKEEKDQLQVLVSKQNSIIEELEKKIVTATVNNSVLQKQQHDLMETVNNLLTMMSTSNSAKDPTVAKEEQISFRDCAEVFKSGHTTNGIYTLTFPNSTEEIKAYCDMEAGGGGWTIIQRREDGSVDFQRTWKEYKVGFGNPSGEYWLGNEFVSQLTNQQRYVLKIHLKDWEGNEAYSLYEHFYLSSEELNYRIHLKGLTGTAGKISSISQPGNDFSTKDGDNDKCICKCSQMLTGGWWFDACGPSNLNGMYYPQRQNTNKFNGIKWYYWKGSGYSLKATTMMIRPADF	–	–	–	–	percentage of EdU-negative [1, 10]: 4.54 ± 0.087%; percentage of EdU-negative [1, 11]: 7.44 ± 0.6%; percentage of EdU-negative [2, 10]: 27.2 ± 1.1%; percentage of EdU-negative [2, 11]: 27.32 ± 0.1%
MWQLLLPTALLLLVSAGMRTEDLPKAVVFLEPQWYSVLEKDSVTLKCQGAYSPEDNSTQWFHNENLISSQASSYFIDAATVNDSGEYRCQTNLSTLSDPVQLEVHIGWLLLQAPRWVFKEEDPIHLRCHSWKNTALHKVTYLQNGKDRKYFHHNSDFHIPKATLKDSGSYFCRGLVGSKNVSSETVNITITQGLAVSTISSFSPPGYQVSFCLVMVLLFAVDTGLYFSVKTNI	4.18 ± 0.071	4.98 ± 1.1	25.6 ± 2.5	25.5 ± 3.6	–
MWSGWWLWPLVAVCTADFFRDEAERIMRDSPVIDGHNDLPWQLLDMFNNRLQDERANLTTLAGTHTNIPKLRAGFVGGQFWSVYTPCDTQNKDAVRRTLEQMDVVHRMCRMYPETFLYVTSSAGIRQAFREGKVASLIGVEGGHSIDSSLGVLRALYQLGMRYLTLTHSCNTPWADNWLVDTGDSEPQSQGLSPFGQRVVKELNRLGVLIDLAHVSVATMKATLQLSRAPVIFSHSSAYSVCASRRNVPDDVLRLVKQTDSLVMVNFYNNYISCTNKANLSQVADHLDHIKEVAGARAVGFGGDFDGVPRVPEGLEDVSKYPDLIAELLRRNWTEAEVKGALADNLLRVFEAVEQASNLTQAPEEEPIPLDQLGGSCRTHYGYSSGASSLHRHWGLLLASLAPLVLCLSLL	5.01 ± 0.58	5.87 ± 0.22	25 ± 0.35	25.2 ± 0.86	–
MWSLLLCGLSIALPLSVTADGCKDIFMKNEILSASQPFAFNCTFPPITSGEVSVTWYKNSSKIPVSKIIQSRIHQDETWILFLPMEWGDSGVYQCVIKGRDSCHRIHVNLTVFEKHWCDTSIGGLPNLSDEYKQILHLGKDDSLTCHLHFPKSCVLGPIKWYKDCNEIKGERFTVLETRLLVSNVSAEDRGNYACQAILTHSGKQYEVLNGITVSITERAGYGGSVPKIIYPKNHSIEVQLGTTLIVDCNVTDTKDNTNLRCWRVNNTLVDDYYDESKRIREGVETHVSFREHNLYTVNITFLEVKMEDYGLPFMCHAGVSTAYIILQLPAPDFRAYLIGGLIALVAVAVSVVYIYNIFKIDIVLWYRSAFHSTETIVDGKLYDAYVLYPKPHKESQRHAVDALVLNILPEVLERQCGYKLFIFGRDEFPGQAVANVIDENVKLCRRLIVIVVPESLGFGLLKNLSEEQIAVYSALIQDGMKVILIELEKIEDYTVMPESIQYIKQKHGAIRWHGDFTEQSQCMKTKFWKTVRYHMPPRRCRPFPPVQLLQHTPCYRTAGPELGSRRKKCTLTTG [Q9HB29]	5.48 ± 0.32	6.16 ± 0.14	24.7 ± 2.6	24 ± 0.89	–
MWTLGRRAVAGLLASPSPAQAQTLTRVPRPAELAPLCGRRGLRTDIDATCTPRRASSNQRGLNQIWNVKKQSVYLMNLRKSGTLGHPGSLDETTYERLAEETLDSLAEFFEDLADKPYTFEDYDVSFGSGVLTVKLGGDLGTYVINKQTPNKQIWLSSPSSGPKRYDWTGKNWVYSHDGVSLHELLAAELTKALKTKLDLSSLAYSGKDA	4.76 ± 0.24	9.96 ± 1	25.6 ± 0.72	26.7 ± 4	–
MWTSGRMSNAKNWLGLGMSLYFWGLMDLTTTVLSDTPTPQGELEALLSDKPQSHQRTKRSWVWNQFFVLEEYTGTDPLYVGKLHSDMDRGDGSIKYILSGEGAGIVFTIDDTTGDIHAIQRLDREERAQYTLRAQALDRRTGRPMEPESEFIIKIQDINDNEPKFLDGPYVATVPEMSPVGTSVIQVTATDADDPTYGNSARVVYSILQGQPYFSVDSKTGVIRTALMNMDREAKEYYEVIIQAKDMGGQLGGLAGTTTVNITLSDVNDNPPRFPQKHYQMSVLESAPISSTVGRVFAKDLDEGINAEMKYTIVDGDGADAFDISTDPNFQVGIITVKKPLSFESKKSYTLKVEGANPHLEMRFLNLGPFQDTTTVHISVEDVDEPPVFEPGFYFVEVPEDVAIGTTIQIISAKDPDVTNNSIRYSIDRSSDPGRFFYVDITTGALMTARPLDREEFSWHNITVLAMEMNNPSQVGSVPVTIKVLDVNDNAPEFPRFYEAFVCENAKAGQLIQTVSAVDQDDPRNGQHFYYSLAPEAANNPNFTIRDNQDNTARILTRRSGFRQQEQSVFHLPILIADSGQPVLSSTGTLTIQVCSCDDDGHVMSCSPEAYMLPVSLSRGALIAILACIFVLLVLVLLILSMRRHRKQPYIIDDEENIHENIVRYDDEGGGEEDTEAFDIAAMWNPREAQAGAAPKTRQDMLPEIESLSRYVPQTCAVNSTVHSYVLAKLYEADMDLWAPPFDSLQTYMFEGDGSVAGSLSSLQSATSDSEQSFDFLTDWGPRFRKLAELYGASEGPAPLW [Q9HBT6]	3.9 ± 0.76	50.2 ± 7	28 ± 0.47	36 ± 0.13	–
MWVLGIAATFCGLFLLPGFALQIQCYQCEEFQLNNDCSSPEFIVNCTVNVQDMCQKEVMEQSAGIMYRKSCASSAACLIASAGYQSFCSPGKLNSVCISCCNTPLCNGPRPKKRGSSASALRPGLRTTILFLKLALFSAHC [Q8N2G4]	5.36 ± 1.2	4.964 ± 0.041	25.13 ± 0.22	25.1 ± 1.1	–
MWVPVVFLTLSVTWIGAAPLILSRIVGGWECEKHSQPWQVLVASRGRAVCGGVLVHPQWVLTAAHCIRNKSVILLGRHSLFHPEDTGQVFQVSHSFPHPLYDMSLLKNRFLRPGDDSSHDLMLLRLSEPAELTDAVKVMDLPTQEPALGTTCYASGWGSIEPEEFLTPKKLQCVDLHVISNDVCAQVHPQKVTKFMLCAGRWTGGKSTCSGDSGGPLVCNGVLQGITSWGSEPCALPERPSLYTKVVHYRKWIKDTIVANP	4.97 ± 0.14	5.29 ± 0.6	26.3 ± 1.2	25 ± 2	percentage of EdU-negative [1, 12]: 4.99 ± 0.4%; percentage of EdU-negative [1, 13]: 6.47 ± 0.73%; percentage of EdU-negative [2, 12]: 27.3 ± 0.96%; percentage of EdU-negative [2, 13]: 26.3 ± 0.32%
